Consider 1 substance from patent US20120141480A1.

Test [1] addresses dog factor D (in dog serum) (dog). The test is described as follows: cell-based or functional assay. The following applies: scale: times less effective than on human factor D.
The target of test [2] is human factor D (purified from human serum) (human) (UniProt P00746). The test is described as follows: cell-based or functional assay.
UniProt P00746, sequence (P00746 26-253 N180D): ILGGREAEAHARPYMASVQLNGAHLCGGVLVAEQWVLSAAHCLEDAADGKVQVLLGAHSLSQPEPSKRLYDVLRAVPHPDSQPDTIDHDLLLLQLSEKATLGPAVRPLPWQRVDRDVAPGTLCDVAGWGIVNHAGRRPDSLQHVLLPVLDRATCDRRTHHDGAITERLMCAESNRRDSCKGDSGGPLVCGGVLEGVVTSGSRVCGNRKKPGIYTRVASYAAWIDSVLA

On to MAb 166-32 (antibody), for which the neutralization of dog factor D in hemolytic assays, against human factor D in test [1] is > 10. In addition, in test [2], the alternative pathway hemolytic activity of plasma from an extracorporeal circuit with human whole blood (molar ratio (MAb:factor D)) turned out to be 1.5, the inhibition of factor D dependent hemolysis of unsensitized rabbit RBCs (factor D depleted human serum reconstituted with purified factor D) is 0.3 µg/mL and the molar ratio for inhibition of factor D dependent hemolysis (molar ratio (MAb 166-32 to factor D)) was 0.5.
